Holding throughout (test): EMSA
In general terms: In EMSA bound probe runs differently from free probe, usually more slowly.

In data set [1] the target is T1, Csy complex (type I-F surveillance complex) (UniProt Q02ML9;Q02MM0;Q02MM1;Q02MM2 1-434;1-327;1-342;1-187).
T1 sequence 1: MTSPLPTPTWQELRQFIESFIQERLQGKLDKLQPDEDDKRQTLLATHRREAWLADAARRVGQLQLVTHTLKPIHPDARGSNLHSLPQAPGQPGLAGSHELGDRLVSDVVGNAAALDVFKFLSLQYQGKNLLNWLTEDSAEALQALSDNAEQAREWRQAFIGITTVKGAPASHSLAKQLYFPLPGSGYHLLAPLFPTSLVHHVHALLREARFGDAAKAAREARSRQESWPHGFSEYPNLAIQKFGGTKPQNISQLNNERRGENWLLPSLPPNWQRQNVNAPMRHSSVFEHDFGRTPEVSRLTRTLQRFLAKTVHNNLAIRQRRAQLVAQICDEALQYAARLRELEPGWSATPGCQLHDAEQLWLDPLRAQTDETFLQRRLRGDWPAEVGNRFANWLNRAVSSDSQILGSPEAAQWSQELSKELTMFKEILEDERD
T1 sequence 2: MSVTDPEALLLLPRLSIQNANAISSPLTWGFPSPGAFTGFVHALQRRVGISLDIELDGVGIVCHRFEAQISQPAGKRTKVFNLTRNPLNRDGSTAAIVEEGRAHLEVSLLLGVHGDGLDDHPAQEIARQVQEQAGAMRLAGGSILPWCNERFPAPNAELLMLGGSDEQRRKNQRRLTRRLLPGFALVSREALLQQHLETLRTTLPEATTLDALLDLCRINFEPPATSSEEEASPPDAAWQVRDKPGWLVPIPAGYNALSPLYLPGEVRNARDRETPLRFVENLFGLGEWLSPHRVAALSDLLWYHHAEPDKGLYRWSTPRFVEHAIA
T1 sequence 3: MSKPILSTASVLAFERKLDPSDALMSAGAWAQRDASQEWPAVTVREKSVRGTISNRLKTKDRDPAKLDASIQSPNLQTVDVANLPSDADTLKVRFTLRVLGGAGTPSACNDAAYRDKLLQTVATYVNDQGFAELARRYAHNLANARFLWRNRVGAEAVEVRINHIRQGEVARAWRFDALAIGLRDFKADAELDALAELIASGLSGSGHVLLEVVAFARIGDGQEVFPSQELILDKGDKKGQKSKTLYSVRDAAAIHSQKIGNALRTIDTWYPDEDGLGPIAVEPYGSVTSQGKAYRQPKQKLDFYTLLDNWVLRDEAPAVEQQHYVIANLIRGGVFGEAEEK
T1 sequence 4: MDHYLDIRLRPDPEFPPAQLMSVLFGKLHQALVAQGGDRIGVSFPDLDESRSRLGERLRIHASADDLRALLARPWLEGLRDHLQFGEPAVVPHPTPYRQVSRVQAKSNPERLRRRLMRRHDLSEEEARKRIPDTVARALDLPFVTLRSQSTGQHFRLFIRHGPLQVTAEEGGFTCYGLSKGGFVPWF

Data set [2] deals with T2, Csy complex (type I-F surveillance complex);Cas2/3 (;, UniProt Q02ML9;Q02MM0;Q02MM1;Q02MM2;Q02ML8 1-434;1-327;1-342;1-187;1-1076, |).
Data set [3] concerns the target T2, Csy complex (type I-F surveillance …). This is another data set of the same source.
The target in data set [4] is Csy M (Cas8f R299G/R302A);Cas2/3 (;, UniProt Q02ML9;Q02MM0;Q02MM1;Q02MM2;Q02ML8 1-434;1-327;1-342;1-187;1-1076, R299G;R302A|).

Two molecules from article PMC9637919 can be followed below.

Read-outs that look alike come from different tables or passages of the source.

What is called Kd is the concentration at which binding is half-saturated. A lower Kd goes with higher affinity.

B1: 54-bp target dsDNA, 5'-FAM TS (dsDNA)
DNA 1: GGAAGCCATCCAGGTAGACGCGGACATCAAGCCCGCCGTGAAGGTGCAGCTGCT
DNA 2: AGCAGCTGCACCTTCACGGCGGGCTTGATGTCCGCGTCTACCTGGATGGCTTCC
The molecule B1 returned a Kd in data set [1] of 9.46 ± 0.82 nM. Moreover, the binding result in data set [2] is “binds”.

B2: 54-bp dsDNA bubble, 5'-FAM TS (dsDNA)
DNA 1: GGAAGCCATCCAGGTAGACGCGGACATCAAGCCCGCCGTGAAGGTGCAGCTGCT
DNA 2: AGCAGCTGCACCAAGTGCCGCCGCTTGATGTCCGCGTCTACCTGGATGGCTTCC
Take B2: the binding result in data set [3] and in data set [4] was “binds” throughout. Besides, binding in data set [1] was characterised by a dissociation constant (Kd) of 8.15 ± 0.62 nM.
